Reference: patent US10772972B2, “Anti-STEAP2 antibody drug conjugates, and compositions and uses thereof” (Regeneron Pharmaceuticals, Inc., priority 2016, dated 2020)
Values joined by “and” are separate entries in the source; they are usually repeats but may differ in a detail not shown here. Identical values can stand only once.

Columns and labels:
[1] = tested on: human prostate cancer C4-2 cells (xenograft); assay: C4-2/human PBMC co-implant xenograft in NSG mice, immediate dosing; assay type: in vivo, mouse; conditions: C4-2/NSG
From the text: To assess the in vivo efficacy of the anti-STEAP2/anti-CD3 bispecifics in human tumor xenograft studies, NOD scid gamma (NSG) mice (Jackson Laboratories, Bar Harbor, Me.) were co-implanted with human peripheral blood mononuclear cells (PBMCs; ReachBio LLC., Seattle, Wash.) along with human prostate cancer C4-2 cells (MD Anderson Cancer Center, Houston Tex.) which endogenously express STEAP2.
Briefly, 5.0×10^6 C4-2 cells were co-implanted subcutaneously (s.c.) with 1.25×10^6 human PBMCs in a 50:50 mix of matrigel matrix (BD Biosciences, San Jose, Calif.) into the right flank of male NSG mice. Mice were treated intraperitoneally (i.p.) on the day of implantation (immediate treatment model) with anti-STEAP2/anti-CD3 bispecifics BSSTEAP2/CD3-001, BSSTEAP2/CD3-002 or BSSTEAP2/CD3-003, or an isotype control, at a dose of 0.1 or 0.01 mg/kg (N=5 mice/group).
Tumor size was measured 2×/week using calipers and tumor volume calculated as Volume=(length×width^2)/2. Data is shown as tumor size (mm^3) at study endpoint, 46 d post-tumor implantation (Table 7).

[2] = tested on: cynomolgus T cells; assay: FACS binding titration of STEAP2xCD3 bispecifics on cynomolgus T cells; conditions: 66.6 nM to 0.001 nM, 30 minutes at 4° C.
Method: FACS Binding Titration on Jurkat Cells, PC3_STEAP2/1 Cells and cynomolgus T Cells: Flow cytometric analysis was utilized to determine binding of STEAP2×CD3 bispecific antibodies to Jurkat, PC3_STEAP2/1 chimeric and cynomolgus T cells, followed by detection with a phycoerythrin (PE)-labeled anti-human IgG antibody. Briefly, 2×10^5 cells/well were incubated for 30 minutes at 4° C. with a serial dilution of STEAP2×CD3 bispecific antibodies or control antibody (a human IgG1 antibody that binds a feline antigen with no cross-reactivity to STEAP2 or human or cynomolgus CD3) ranging from 66.6 nM to 0.001 nM. After incubation, the cells were washed twice with cold PBS containing 1% filtered FBS and a PE-conjugated anti-human secondary antibody was added to the cells and incubated for an additional 30 minutes. Wells containing no antibody or secondary antibody only were used as a control. After incubation, cells were washed, re-suspended in 200 μL cold PBS containing 1% filtered FBS and analyzed by flow cytometry on a BD FACS Canto II.

[3] = tested on: monkey PBMCs; assay: T cell proliferation assay, cynomolgus PBMC; assay type: cell-based; conditions: for Cynomolgus PBMC proliferation activity (in words): across donors tested
Method: Thawed human or freshly isolated monkey PBMCs (50,000 cells/well) were incubated with 3-fold (human, concentration range: 5E-10M to 2.82E-15M; cynomolgus, concentration range: 1E-09M to 4.57E-13M) serial dilutions of STEAP2×CD3 bispecifics or isotype control in complete medium (RPMI supplemented with 10% FBS, 100 U/mL penicillin, 100 μg/mL streptomycin, 292 μg/mL L-glutamine) and a fixed concentration (human: 200 ng/mL, cyno: 500 ng/mL) of a commercial anti-CD28 antibody (Biolegend, Catalog #302914) in white flat bottom 96-well plates for 72 hours at 37° C. Isolated monkey PBMCs were from two donors (identified as mk8781M or mk9381M). Following incubation, CellTiter Glo® (Promega, Cat #7573) was added and luminescence, as readout for cell viability, was measured using a VICTOR X5 multi-label plate reader. Cell titer was calculated by dividing the luminescence of stimulated cells by the baseline luminescence of unstimulated cells.

[4] = tested on: FADU cells (STEAP2 negative); assay: FACS binding to STEAP2-negative FADU cells; conditions: human-Fc antibodies
Method: (§1) The ability of anti-STEAP2 antibodies to selectively bind to human six-transmembrane epithelial antigen of prostate 2 (STEAP2) endogenously expressing cell lines was determined via FACS analysis.
(§2) Briefly, 1×10^5 cells were incubated with 10 μg/ml of anti STEAP2 antibodies, or isotype control antibodies for 30 min on ice in antibody dilution buffer. Following one wash with antibody dilution buffer, cells were incubated with 10 μg/ml of PE conjugated anti-human or anti mouse Fc secondary antibodies for 30 min on ice. Following one additional wash, samples were incubated with Cytofix (1% formaldehyde) for 20 minutes. After one final wash, samples were filtered through a Pall 96 well filtration block, run on a Hypercyt® cytometer and analyzed in ForeCyt™ (IntelliCyt, Albuquerque, N. Mex.). Mean fluorescence intensities (MFI) were expressed as fold change above unstained levels (background). The average fold above background at antibody concentrations of 100-300 nM were determined. For cell binding EC50 determinations, mAb concentrations ranged from 300 nM to […] and EC50 values were determined from a four-parameter logistic equation over a 12-point response curve (GraphPad Prism).

[5] = tested on: C4-2 cells (high-STEAP2 expressing); assay: Internalization and total binding on C4-2 cells (imaging, qualitative score); assay type: cell-based, human; design: key: − (no internalization or binding); +(weak internalization or binding); ++(moderate internalization or binding); +++(robust internalization or binding); conditions: 10 μg/ml antibody
Method: Briefly, 20,000 C4-2 cells were seeded in PDL coated 96 well plates. The next day, cells were incubated with anti-human STEAP2 antibodies (10 μg/ml) for 30 min on ice followed by two PBS washes. Cells were then incubated with alexa488-conjugated anti-hFc Fab secondary antibody for 30 minutes on ice, followed by two additional PBS washes. Antibodies were allowed to internalize for 1 h at 37° C. in internalization buffer (PBS+2% FBS) or were maintained at 4° C. Cells were fixed in 4% formaldehyde, nuclei were stained with DRAQ5 (Cell signaling), and images were acquired on the ImageXpress micro XL (Molecular Devices).
A qualitative visual assessment of the total binding intensity and the intensity of antibodies that had internalized into vesicles was performed and scored according to the following criteria: − (no internalization or binding), +(weak internalization or binding), ++(moderate internalization or binding) and +++(robust internalization or binding).

[6] = tested on: Raji cells (STEAP2 negative); assay: FACS binding to STEAP2-negative Raji cells; conditions: human-Fc antibodies
Method: as §1, §2

| Molecule | Cynomolgus T cells EC50 [M] [2] | Cynomolgus PBMC proliferation activity (in words) [3] | FADU Avg F.A.B (Fold Above Background) [4] [fold] | Raji Avg F.A.B (Fold Above Background) [6] [fold] | other results |
| --- | --- | --- | --- | --- | --- |
| BSSTEAP2/CD3-001: STEAP2×CD3 bispecific: anti-STEAP2 HCVR H2M11162N (SEQ 250), anti-CD3 HCVR CD3-VH-G (SEQ 1730), common LCVR SEQ 258 (antibody, V domains shown) VH 1: QVQLQQSGPGLVKPSQTLSLTCAISGDSVSSNRAAWNWIRQSPSRGLQWLGRTYYRSKWYNDYAVSLRSRITINPVTSKNQVALHMNSVTPEDTAVYYCARAGIVVVPGPETFYYYDHGLDVWGQGTTVTVSS VH 2: EVQLVESGGGLVQPGRSLRLSCAASGFTFDDYSMHWVRQAPGKGLEWVSGISWNSGSKGYADSVKGRFTISRDNAKNSLYLQMNSLRAEDTALYYCAKYGSGYGKFYHYGLDVWGQGTTVTVSS VL: DIQMTQSPSSLSASVGDRVTITCRASQSIRSYLNWYQQKPGKAPELLIHAASSLQSGVPSRFSGSGSGTDFTLTISSLQPEDFASYYCQQSYSAPPITFGQGTRLEIK | – | induced robust cynomolgus PBMC proliferation in all donors tested | – | – | Tumor Size (mm^3) 46 d post-tumor implantation (mean ± SD) ([1]; 0.01 mg/kg i.p. on day of implantation): 23.0 ± 220 mm^3; Tumor Size (mm^3) 46 d post-tumor implantation (mean ± SD) ([1]; 0.1 mg/kg i.p. on day of implantation): 18.0 ± 14.0 mm^3; Tumor growth compared to isotype control at study endpoint (in words) ([1]; 0.1 or 0.01 mg/kg): significantly suppressed tumor growth; EC50 [2]: 7270 pM; EC50 ([3]; donor mk9381M, anti-CD28 500 ng/mL, 72 hours, read-out: Cyno PBMC Proliferation [M] (donor)): 4.6e-12 M and 4.59e-12 M |
| H1H11164N: human-Fc anti-STEAP2 antibody, HCVR/LCVR SEQ ID NOs 282/290 (antibody, V domains shown, human Fc) VH: QVQLQQSGPGLVKPSQTLSLTCVISGDSVSTNSAAWNWIRQSPSRGLEWLGRTYYRSKWYNDYAVSVRSRITINPVTSKNQVALHLNSVTPEDTAVYYCARAGIVVVPGPETYYYYYHGLDVWGQGTTVTVSS VL: DIQMTQSPSSLSASVGDRVTITCRASQNIRSYLNWYQQKPGKAPKLLIHVASSLQSGVPSRFSGSGSGTDFTLTISSLQPEDFATYYCQQSYSTPPITFGHGTRLEIK | – | – | 3 | – | Internalization (37° C., 1 h) Qualitative Score [5]: +++; Total Binding (4° C.) Qualitative Score [5]: +++ |
| H1H7810N: human-Fc anti-STEAP2 antibody; variable regions presumably as H2M7810N (antibody, V domains shown) VH: QVQLVESGGGVVQPGRSLRLSCAVSGFTSSTYGMNWVRQAPGKGLEWVAVISYDGSNKYYADSVKGRFTISRDNSKNTLYLQMNSLRPEDTAVYYCARGRYFDLWGRGTLVTVSS VL: DIQMTQSPSTLSASVGDRVTITCRASQIISSWLAWYQQKPGKAPKLLIYKASSLASGVPSRFSGSGSGTEFTLTISSLQPDDFATYYCQQYKSYSYTFGQGTKLEIK | – | – | – | 2 | – |
| H1H7811N: human-Fc anti-STEAP2 antibody; variable regions presumably as H2M7811N (antibody, V domains shown) VH: QVQLVESGGGVVQPGRSLRLSCAVSGFTSSTYGMNWVRQAPGKGLEWVAVISFDGSNKYYADSVKGRFTISRDNSKNTLYLQMSSLRPEDTAVYYCARGRYFDLWGRGTLVTVSS VL: DTQMTQSPSTLSASVGDRVTITCRASQIISSWLAWYQQKPGKAPKLLIYKASSLASGVPSRFSGSGSGTEFTLTISSLQPDDFATYYCQQYKSYSYTFGQGTNLEIK | – | – | 3 | 4 | – |

Now from value to molecule, other results behind:

| Cynomolgus T cells EC50 [M] [2] | Molecule | Cynomolgus PBMC proliferation activity (in words) [3] | FADU Avg F.A.B (Fold Above Background) [4] [fold] | Raji Avg F.A.B (Fold Above Background) [6] [fold] | other results |
| --- | --- | --- | --- | --- | --- |
| No Binding | BSSTEAP2/CD3-005: STEAP2×CD3 bispecific: anti-STEAP2 H1H11162 (SEQ 250), anti-CD3 H1H7208P (SEQ 1490), common LCVR SEQ 258 (antibody, V domains shown) VH 1: QVQLQQSGPGLVKPSQTLSLTCAISGDSVSSNRAAWNWIRQSPSRGLQWLGRTYYRSKWYNDYAVSLRSRITINPVTSKNQVALHMNSVTPEDTAVYYCARAGIVVVPGPETFYYYDHGLDVWGQGTTVTVSS VH 2: QVQLVESGGGLVHPGRSLRLSCAASGFKFDDYTMHWVRQAPGKGLEWVSDISWNSGSKGYADSVKGRFTISRDNAKDSLYLQMDSLRAADTAFYYCAKDKSGYGHFYYYAMDVWGQGTTVTVSS VL: DIQMTQSPSSLSASVGDRVTITCRASQSIRSYLNWYQQKPGKAPELLIHAASSLQSGVPSRFSGSGSGTDFTLTISSLQPEDFASYYCQQSYSAPPITFGQGTRLEIK | no activity | – | – | – |
| No Binding | BSSTEAP2/CD3-009: STEAP2×CD3 bispecific: anti-STEAP2 H1H11164 (SEQ 282), anti-CD3 H1H7208P (SEQ 1490), common LCVR SEQ 290 (antibody, V domains shown) VH 1: QVQLQQSGPGLVKPSQTLSLTCVISGDSVSTNSAAWNWIRQSPSRGLEWLGRTYYRSKWYNDYAVSVRSRITINPVTSKNQVALHLNSVTPEDTAVYYCARAGIVVVPGPETYYYYYHGLDVWGQGTTVTVSS VH 2: QVQLVESGGGLVHPGRSLRLSCAASGFKFDDYTMHWVRQAPGKGLEWVSDISWNSGSKGYADSVKGRFTISRDNAKDSLYLQMDSLRAADTAFYYCAKDKSGYGHFYYYAMDVWGQGTTVTVSS VL: DIQMTQSPSSLSASVGDRVTITCRASQNIRSYLNWYQQKPGKAPKLLIHVASSLQSGVPSRFSGSGSGTDFTLTISSLQPEDFATYYCQQSYSTPPITFGHGTRLEIK | no activity | – | – | – |
